Source: patent publication US20110177600A1 (published 2011)

B1: anti-diphtheria toxin antibody expressed in DG44 cells (antibody, human IgG1, kappa, V domains shown)
VH: EVQLVESGGGLVKPGGSLRLSCEASGFIFSDYYMSWIRQAPGKGLEWISYISPSGSTLYYADSMRGRFTISRDNAKNSLYLQMNSLRVEDTAVYFCAREYPTTSKVAITPNWFDLWGQGTLVTVSS
VL: ETTLTQSPATLSLSPGERATLSCRASQSVSTFLAWYQQKPGQAPRLLIYDASNRATGIPARFSGSGSGTDFTLTISSLEPEDFAVYYCQQRNIWPSFGGGTKVDIKR
B2: anti-diphtheria toxin antibody expressed in PER.C6 cells (antibody, human IgG1, kappa, V domains shown)
VH: B1 VH
VL: B1 VL

Molecular target: diphtheria toxin (UniProt P00588 33-567)
Sequence (P00588 33-567 limits assumed): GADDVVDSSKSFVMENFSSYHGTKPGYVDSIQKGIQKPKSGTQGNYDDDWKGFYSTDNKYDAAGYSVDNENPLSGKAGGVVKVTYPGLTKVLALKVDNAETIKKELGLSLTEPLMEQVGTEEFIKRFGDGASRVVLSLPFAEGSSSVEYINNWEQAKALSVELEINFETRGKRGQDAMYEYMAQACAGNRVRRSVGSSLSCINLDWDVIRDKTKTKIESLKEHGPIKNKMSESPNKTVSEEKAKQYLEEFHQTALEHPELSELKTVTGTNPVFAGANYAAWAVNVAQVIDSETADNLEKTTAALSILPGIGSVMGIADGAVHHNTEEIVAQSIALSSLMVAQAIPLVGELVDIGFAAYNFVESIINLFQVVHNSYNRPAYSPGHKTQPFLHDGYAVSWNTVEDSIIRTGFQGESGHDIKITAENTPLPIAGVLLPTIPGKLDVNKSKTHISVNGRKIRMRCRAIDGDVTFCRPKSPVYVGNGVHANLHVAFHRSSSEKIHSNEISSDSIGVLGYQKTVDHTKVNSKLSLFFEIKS
Assay: cell-based or functional assay

Row | Binder | EC50 for protecting Jurkat cells from killing by diphtheria toxin (3H-thymidine incorporation) [ng/mL]
1 | B1 | 8
2 | B2 | 11
